The target of test [1] is T1, Human TREM2 R47H (human, UniProt Q9NZC2 19-174, limits assumed).
T1 construct: also called human R47H TREM mutant; R47H TREM
T1 sequence (looked up): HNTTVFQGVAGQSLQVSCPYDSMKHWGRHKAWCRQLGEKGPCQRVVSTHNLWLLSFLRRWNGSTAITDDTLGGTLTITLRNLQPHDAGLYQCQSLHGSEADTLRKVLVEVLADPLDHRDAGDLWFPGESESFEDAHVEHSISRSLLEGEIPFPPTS
The test is described as follows: SPR (Biacore), 25 C; 25 C; human TREM2 R47H. In general terms: SPR reads the build-up and loss of mass on a sensor chip optically.

Test [2] concerns the target T2, Human ECD TREM2-His (human, UniProt Q9NZC2 19-174).
T2 construct: also called Human TREM2; human TREM2 extracellular domain fused to a C-terminal His tag
T2 sequence: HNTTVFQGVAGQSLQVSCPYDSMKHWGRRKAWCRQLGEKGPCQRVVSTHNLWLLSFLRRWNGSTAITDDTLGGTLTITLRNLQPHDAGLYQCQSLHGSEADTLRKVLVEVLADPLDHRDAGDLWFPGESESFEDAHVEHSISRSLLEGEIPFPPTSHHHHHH
The test is described as follows: SPR (Biacore), 25 C; 25 C; human TREM2.

The target of test [3] is T3, Mouse ECD TREM2-His (mouse, UniProt Q99NH8 19-171).
T3 construct: also called Mouse TREM2
T3 sequence: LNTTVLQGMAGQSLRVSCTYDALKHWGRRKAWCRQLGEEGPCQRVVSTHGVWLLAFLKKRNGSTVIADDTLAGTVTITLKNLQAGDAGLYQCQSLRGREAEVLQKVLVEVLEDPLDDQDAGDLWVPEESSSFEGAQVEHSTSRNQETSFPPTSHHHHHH
The test is described as follows: SPR (Biacore), 37 C, antibody captured on protein A, TREM2-His ECD analyte, 1:1 model. On the procedure:
(§1) The binding kinetics and affinity of TREM2 antibodies to human (SEQ ID NO: 11), mouse (SEQ ID NO: 12), rat (SEQ ID NO: 14), rabbit (SEQ ID NO: 13), or cynomolgus monkey (SEQ ID NO: 15) TREM2 extracellular domains (ECDs) fused to a C-terminal His tag are determined using surface plasmon resonance biosensor such as a BIAcore® T100, BIAcore® T200, or BIAcore® 8K (GE Healthcare, Piscataway, N .).
(§2) Samples are dissolved in 1xHBS-EP+running buffer (Teknova), and a protein A coupled CM5 Series S sensor chip (GE Healthcare) is utilized to capture antibody. Binding is evaluated using multiple analytical cycles. Each cycle is performed at 37° C. at a flow rate of 50 μl/min for antibody capture and 30 μl/min for ligand association and dissociation. Each cycle consists of the following: injection of 7 μl of 1 μg/ml antibody with the aim at a capture of 150-250 response units, injection of human, cynomolgus monkey, rabbit, rat, or mouse TREM2-His ECDs (starting at 20nM and using two-fold serial dilutions for each cycle) followed by 200 seconds for association, followed by 800 second dissociation phase, and regeneration using 10 mM glycine hydrochloride, pH 1.5 over a 30 second contact time. Association (i.e., kₒₙ) and dissociation rates (i.e., koff) for each cycle are evaluated using standard double referencing and fit to “1:1 (Langmuir) binding” model in the Biacore 8K evaluation in parallel kinetics batch mode. The affinity (KD) is calculated from the binding kinetics according to the relationship KD=Koff/Kₒₙ. Due to biphasic binding data for Reference Antibody A, a heterogenous ligand 2:1 binding modeling found in the Biacore 8K evaluation was used to calculate the KD. […] N=3 for Antibody 1 and Reference Antibody A, and n=1 for Reference Antibody B.

For test [4], the target named is T4, Cyno ECD TREM2-His (cynomolgus monkey).
T4 construct: also called Cyno TREM2; cynomolgus monkey TREM2
T4 chain: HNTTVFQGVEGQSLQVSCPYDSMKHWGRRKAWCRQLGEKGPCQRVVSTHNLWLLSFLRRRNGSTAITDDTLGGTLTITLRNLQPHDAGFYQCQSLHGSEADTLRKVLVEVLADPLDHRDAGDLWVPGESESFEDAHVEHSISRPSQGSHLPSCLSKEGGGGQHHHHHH
Described as above. On the procedure:
as §1, §2

Test [5] concerns the target T2, Human ECD TREM2-His. The description is as above. The procedure: as §1, §2
The target of test [6] is T3, Mouse ECD TREM2-His. The test is described as follows: SPR (Biacore), 25 C; 25 C; mouse TREM2.
Test [7] concerns the target T1, Human TREM2 R47H. The test is described as follows: SPR (Biacore), 37 C, antibody captured on protein A, TREM2 R47H analyte, 1:1 model.
The target in test [8] is T4, Cyno ECD TREM2-His. The test is described as follows: SPR (Biacore), 25 C; 25 C; cynomolgus TREM2.
In test [9] the target is T5, human TREM2 expressed on BW5147.G.1.4 cells (human, UniProt Q9NZC2 19-230).
T5 construct: whole, on cells; Co-expressed with the adapter DAP12; also called TREM2 expressing BW5147.G.1.4 cells
T5 sequence (looked up): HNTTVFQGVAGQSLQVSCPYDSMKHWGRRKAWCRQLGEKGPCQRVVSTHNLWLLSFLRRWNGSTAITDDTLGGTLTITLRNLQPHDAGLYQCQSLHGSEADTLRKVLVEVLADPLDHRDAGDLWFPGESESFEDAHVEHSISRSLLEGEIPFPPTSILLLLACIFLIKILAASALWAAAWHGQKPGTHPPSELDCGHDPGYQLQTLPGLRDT
The test is described as follows: flow cytometry (MFI) on BW5147.G.1.4 cells expressing human TREM2 and DAP12, anti-human IgG Alexa Fluor 647 detection. The procedure:
To investigate whether Antibody 1 binds to TREM2-expressing cells, a binding experiment is performed. BW5147.G.1.4 cell line is transduced to express human TREM2 and its adapter […] adapter protein 12 (DAP12). To assess binding, 500,000 cells are incubated in the presence of Antibody 1 with a 3-fold 12-point titration starting at 30 μg/ml for 30 minutes at 37° C. Antibody binding is detected using goat anti-human IgG Alexa Fluor 647 (Jackson Labs). Mean fluorescence intensity (MFI) is measured using an Accuri C6 Plus flow cytometer (BD Biosciences).
Background: Flow cytometry measures light scatter and fluorescence of single cells or particles in a stream.

Test [10] addresses T6, Rat ECD TREM2-His (rat).
T6 construct: also called Rat TREM2
T6 chain: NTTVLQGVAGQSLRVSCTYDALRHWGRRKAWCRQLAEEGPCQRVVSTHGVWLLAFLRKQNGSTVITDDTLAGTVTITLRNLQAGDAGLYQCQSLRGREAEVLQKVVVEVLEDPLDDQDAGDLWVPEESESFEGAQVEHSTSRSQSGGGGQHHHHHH
The experiment in a line: SPR (Biacore), 37 C, antibody captured on protein A, TREM2-His ECD as analyte. On the procedure: as §1
(§3) Samples are dissolved in 1xHBS-EP+running buffer (Teknova), and a protein A coupled CM5 Series S sensor chip (GE Healthcare) is utilized to capture antibody. Binding is evaluated using multiple analytical cycles. Each cycle is performed at 37° C. at a flow rate of 50 μl/min for antibody capture and 30 μl/min for ligand association and dissociation. […] Association (i.e., kₒₙ) and dissociation rates (i.e., koff) for each cycle are evaluated using standard double referencing and fit to “1:1 (Langmuir) binding” model in the Biacore 8K evaluation in parallel kinetics batch mode. The affinity (KD) is calculated from the binding kinetics according to the relationship KD=Koff/Kₒₙ. […]

In test [11] the target is T7, Rabbit ECD TREM2-HIS (rabbit).
T7 construct: also called rabbit TREM2
T7 chain: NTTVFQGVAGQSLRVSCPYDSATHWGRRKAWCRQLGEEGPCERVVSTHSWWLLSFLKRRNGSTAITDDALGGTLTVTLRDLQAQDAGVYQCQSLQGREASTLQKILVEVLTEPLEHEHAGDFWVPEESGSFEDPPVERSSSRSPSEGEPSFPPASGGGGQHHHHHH
The test is described as above. The procedure:
as §1, §3

Test [12] has as its target T5, human TREM2 expressed on BW5147.G.1.4 …. The test is described as follows: cell-based or functional assay.

Experimental findings from US20220281975A1 (Eli Lilly, published 2022) are described below.

In general, Kd refers to the constant that tells how readily two partners part at equilibrium. What is called koff is a measure of how fast the partners let go of each other. A low value points to a long-lived complex. A word on the kon: it is a measure of how fast the partners come together. Low readings indicate slow association, high ones fast association. What is called EC50 is the concentration giving half of the maximal effect. High values mean lower potency in that assay, low ones higher potency in that assay.

B1: TREM2 Antibody 1 (antibody, human IgG4 S228P, kappa, F234A L235A, V domains shown)
VH: EVQLVQSGAEVKKPGESLKISCKGSGFSFNTYWIGWVRQMPGKGLEWMGIIYPGDQDIRYSPSFQGQVTISADKSISTAYLQWSSLKASDTAMYYCARYGRYIYGYGGYHGMDVWGQGTTVTVSS
VL: DIQMTQSPSSLSASVGDRVTITCRASQAIRDDLGWYQQKPGKAPKLLIYAASSLQSGVPSRFSGSGSGTDFTLTISSLQPEDFATYYCLQNYNYPHTFGQGTKLEIKR
notes: Human antibody with a kappa light chain
With B1, the dissociation constant Kd in test [1] amounted to 0.29 nM; in test [2] it was 0.15 nM; in [3], 1.6 nM; in [4], 0.075 nM; in test [5] it was 0.17 nM; in [6], 3.9 nM. The results for the dissociation constant Kd in [7] and in [8] were 0.075 nM and 0.043 nM, respectively. In addition, the koff in test [3] was determined as 0.044 s⁻¹; in [4], 0.00037 s⁻¹; in [5] it was 0.00058 s⁻¹; in test [7] it was 0.00037 s⁻¹. In addition, the on-rate constant (kon) in [3] amounted to 2.5e+07 M⁻¹ s⁻¹; in test [4] it was 5e+06 M⁻¹ s⁻¹; in test [5], 3.4e+06 M⁻¹ s⁻¹; in test [7], 5e+06 M⁻¹ s⁻¹. Also, the EC50 in test [9] was 0.08 µg/mL. The figures for the binding result in test [10] and in test [11] were “no binding (tested: 200 nM TREM2)” and “no binding”, respectively. Also, in test [12], the “IC50 of inhibition of PS-mediated NFAT activation (luciferase reporter cells)” value worked out at 0.4 µg/mL.
